The values below come from US20180326084A1 (Genmab, published 2018).

For assay [1], the target named is T1, human AXL (full length) (human, UniProt P30530 26-894).
T1 construct: also called TH1021-AXL; TH1021-hAXL
The experiment in a line: flow cytometry, Gas6 titrated on A431 cells pre-incubated with 10 µg/mL control antibody b12. (In general: In flow cytometry, cells or beads pass a laser one at a time.)

The target of assay [2] is T1, human AXL (full length). The assay is described as above. This is another data set of the same source.
Assay [3] has as its target T1, human AXL (full length). In words: flow cytometry, Gas6 titrated on A431 cells pre-incubated with 10 µg/mL IgG1-AXL-107 (competitor).
Assay [4] addresses T1, human AXL (full length). In words: flow cytometry, Gas6 titrated on A431 cells pre-incubated with 10 µg/mL IgG1-AXL-148 (competitor).
Assay [5] concerns the target T1, human AXL (full length). The experiment in a line: flow cytometry, Gas6 titrated on A431 cells pre-incubated with 10 µg/mL IgG1-AXL-154 (competitor).
The target of assay [6] is T1, human AXL (full length). In words: flow cytometry, Gas6 titrated on A431 cells pre-incubated with 10 µg/mL IgG1-AXL-171 (competitor).
Assay [7] concerns the target T1, human AXL (full length). In words: flow cytometry, Gas6 titrated on A431 cells pre-incubated with 10 µg/mL IgG1-AXL-183 (competitor).
The target of assay [8] is T1, human AXL (full length). In words: flow cytometry, Gas6 titrated on A431 cells pre-incubated with 10 µg/mL IgG1-AXL-511 (competitor).
Assay [9] deals with T1, human AXL (full length). The experiment in a line: flow cytometry, Gas6 titrated on A431 cells pre-incubated with 10 µg/mL IgG1-AXL-613 (competitor).
Assay [10] addresses T1, human AXL (full length). The experiment in a line: flow cytometry, Gas6 titrated on A431 cells pre-incubated with 10 µg/mL IgG1-AXL-726 (competitor).
In assay [11] the target is T1, human AXL (full length). In words: flow cytometry, Gas6 titrated on A431 cells pre-incubated with 10 µg/mL IgG1-AXL-733 (competitor).
In assay [12] the target is T1, human AXL (full length). In words: flow cytometry, Gas6 titrated on A431 cells pre-incubated with 10 µg/mL IgG1-AXL-107 (competitor). This is another data set of the same source.
The target in assay [13] is T1, human AXL (full length). In words: flow cytometry, Gas6 titrated on A431 cells pre-incubated with 10 µg/mL IgG1-AXL-613 (competitor). This is another data set of the same source.
In assay [14] the target is T1, human AXL (full length). The experiment in a line: flow cytometry, A431 cells pre-incubated with medium only; Gas6 detected with mouse anti-Gas6 and FITC anti-mouse IgG.
In assay [15] the target is T1, human AXL (full length). In words: flow cytometry, Gas6 titrated on A431 cells pre-incubated with 10 µg/mL YW327.6S2 (competitor); value less accurate due to low binding.
Assay [16] has as its target T1, human AXL (full length). The description is as above. This is another data set of the same source.
For assay [17], the target named is T1, human AXL (full length). In words: flow cytometry, A431 cells, no Gas6.
The target in assay [18] is T2, Homo sapiens AXL-Mus musculus Ig2 domain (p33-AXL-mIg2) (human-mouse chimera, UniProt P30530 26-894).
T2 construct: Expressed in HEK293F cells; also called hsAXL-mmIg2; TH1021-mIg2
T2 chain: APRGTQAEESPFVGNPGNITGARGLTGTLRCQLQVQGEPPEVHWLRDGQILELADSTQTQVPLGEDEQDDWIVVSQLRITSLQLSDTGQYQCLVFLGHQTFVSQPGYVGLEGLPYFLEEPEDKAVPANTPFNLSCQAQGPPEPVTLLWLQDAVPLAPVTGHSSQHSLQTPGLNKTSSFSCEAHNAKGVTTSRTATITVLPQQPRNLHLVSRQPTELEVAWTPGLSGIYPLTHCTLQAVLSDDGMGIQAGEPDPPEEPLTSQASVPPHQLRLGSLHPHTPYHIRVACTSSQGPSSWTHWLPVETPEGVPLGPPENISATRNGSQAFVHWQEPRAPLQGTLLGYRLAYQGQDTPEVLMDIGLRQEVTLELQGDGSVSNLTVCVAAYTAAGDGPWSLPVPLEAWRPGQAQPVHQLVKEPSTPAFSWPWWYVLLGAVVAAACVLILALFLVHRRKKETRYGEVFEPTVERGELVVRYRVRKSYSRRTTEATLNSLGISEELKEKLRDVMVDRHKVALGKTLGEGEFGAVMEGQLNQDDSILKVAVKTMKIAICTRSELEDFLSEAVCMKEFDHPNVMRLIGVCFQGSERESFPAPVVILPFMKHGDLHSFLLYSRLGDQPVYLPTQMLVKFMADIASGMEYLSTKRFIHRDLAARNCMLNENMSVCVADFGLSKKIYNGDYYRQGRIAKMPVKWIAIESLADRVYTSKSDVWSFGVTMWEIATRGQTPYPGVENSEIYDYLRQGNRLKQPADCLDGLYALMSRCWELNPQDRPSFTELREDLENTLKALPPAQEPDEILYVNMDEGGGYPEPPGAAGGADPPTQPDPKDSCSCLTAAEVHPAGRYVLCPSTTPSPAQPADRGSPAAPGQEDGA
The experiment in a line: flow cytometry, 1 µg/mL antibody, transfected HEK293F cells.

In assay [19] the target is T3, Homo sapiens AXL-Mus musculus FN1 domain (p33-AXL-mFN1) (human-mouse chimera, UniProt P30530 26-894).
T3 construct: Expressed in HEK293F cells; also called hsAXL-mmFN1; TH1021-mFN1
T3 chain: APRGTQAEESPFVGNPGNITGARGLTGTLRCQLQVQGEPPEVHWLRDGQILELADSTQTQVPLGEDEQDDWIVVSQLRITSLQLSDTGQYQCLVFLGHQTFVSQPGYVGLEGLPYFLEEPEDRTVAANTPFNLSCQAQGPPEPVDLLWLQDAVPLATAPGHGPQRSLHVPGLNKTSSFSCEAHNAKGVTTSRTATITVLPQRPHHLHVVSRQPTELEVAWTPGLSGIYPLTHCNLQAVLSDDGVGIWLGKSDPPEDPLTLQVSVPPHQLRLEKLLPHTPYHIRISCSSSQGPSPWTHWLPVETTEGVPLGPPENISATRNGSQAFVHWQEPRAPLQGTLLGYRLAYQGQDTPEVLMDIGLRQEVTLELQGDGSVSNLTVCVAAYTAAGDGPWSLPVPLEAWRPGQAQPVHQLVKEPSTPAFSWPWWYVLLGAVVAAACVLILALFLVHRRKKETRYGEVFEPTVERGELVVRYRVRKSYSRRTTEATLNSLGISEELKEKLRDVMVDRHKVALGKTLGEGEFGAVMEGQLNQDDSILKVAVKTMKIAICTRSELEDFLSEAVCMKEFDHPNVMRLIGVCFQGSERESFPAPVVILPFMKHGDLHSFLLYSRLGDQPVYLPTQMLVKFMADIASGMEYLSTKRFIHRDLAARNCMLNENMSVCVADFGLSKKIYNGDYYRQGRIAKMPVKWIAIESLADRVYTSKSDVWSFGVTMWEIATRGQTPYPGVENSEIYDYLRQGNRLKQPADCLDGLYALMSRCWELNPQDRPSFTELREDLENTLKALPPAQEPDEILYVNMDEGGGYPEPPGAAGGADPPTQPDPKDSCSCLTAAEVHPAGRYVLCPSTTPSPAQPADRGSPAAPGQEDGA
The assay is described as above.

The target of assay [20] is T4, Homo sapiens AXL-Mus musculus FN2 domain (p33-AXL-mFN2) (human-mouse chimera, UniProt P30530 26-894).
T4 construct: Expressed in HEK293F cells; also called hsAXL-mmFN2; TH1021-mFN2
T4 chain: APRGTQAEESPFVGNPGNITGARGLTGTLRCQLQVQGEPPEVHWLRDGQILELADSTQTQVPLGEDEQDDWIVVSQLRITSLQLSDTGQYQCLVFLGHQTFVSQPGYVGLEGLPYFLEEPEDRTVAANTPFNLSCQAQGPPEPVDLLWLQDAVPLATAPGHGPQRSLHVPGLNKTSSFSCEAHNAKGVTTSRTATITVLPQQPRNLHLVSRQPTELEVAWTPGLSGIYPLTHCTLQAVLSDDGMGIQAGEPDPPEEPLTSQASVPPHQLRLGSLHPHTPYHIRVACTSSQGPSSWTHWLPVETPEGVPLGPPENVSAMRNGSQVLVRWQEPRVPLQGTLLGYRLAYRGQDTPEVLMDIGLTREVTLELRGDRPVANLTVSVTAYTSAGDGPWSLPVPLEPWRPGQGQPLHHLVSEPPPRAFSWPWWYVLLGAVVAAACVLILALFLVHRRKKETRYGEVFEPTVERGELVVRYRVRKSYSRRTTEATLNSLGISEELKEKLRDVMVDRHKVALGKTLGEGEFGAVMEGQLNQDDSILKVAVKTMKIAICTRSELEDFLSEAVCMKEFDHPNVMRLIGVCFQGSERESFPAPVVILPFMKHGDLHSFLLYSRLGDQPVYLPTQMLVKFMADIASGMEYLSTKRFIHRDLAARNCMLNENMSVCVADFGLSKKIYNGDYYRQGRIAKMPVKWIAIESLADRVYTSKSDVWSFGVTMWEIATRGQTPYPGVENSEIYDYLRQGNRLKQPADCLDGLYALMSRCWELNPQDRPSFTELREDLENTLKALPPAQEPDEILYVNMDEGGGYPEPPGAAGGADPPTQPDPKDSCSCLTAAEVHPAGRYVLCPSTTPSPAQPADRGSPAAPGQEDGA
The assay is described as above.

The target of assay [21] is T1, human AXL (full length). The experiment in a line: flow cytometry, A431 cells pre-incubated with 10 µg/mL Gas6 (competitor).

B1: recombinant human Gas6 (ligand, UniProt Q14393 49-678, looked up)
chain: AFQVFEEAKQGHLERECVEELCSREEAREVFENDPETDYFYPRYLDCINKYGSPYTKNSGFATCVQNLPDQCTPNPCDRKGTQACQDLMGNFFCLCKAGWGGRLCDKDVNECSQENGGCLQICHNKPGSFHCSCHSGFELSSDGRTCQDIDECADSEACGEARCKNLPGSYSCLCDEGFAYSSQEKACRDVDECLQGRCEQVCVNSPGSYTCHCDGRGGLKLSQDMDTCEDILPCVPFSVAKSVKSLYLGRMFSGTPVIRLRFKRLQPTRLVAEFDFRTFDPEGILLFAGGHQDSTWIVLALRAGRLELQLRYNGVGRVTSSGPVINHGMWQTISVEELARNLVIKVNRDAVMKIAVAGDLFQPERGLYHLNLTVGGIPFHEKDLVQPINPRLDGCMRSWNWLNGEDTTIQETVKVNTRMQCFSVTERGSFYPGSGFAFYSLDYMRTPLDVGTESTWEVEVVAHIRPAADTGVLFALWAPDLRAVPLSVALVDYHSTKKLKKQLVVLAVEHTALALMEIKVCDGQEHVVTVSLRDGEATLEVDGTRGQSEVSAAQLQERLAVLERHLRSPVLTFAGGLPDVPVTSAPVTAFYRGCMTLEVNRRLLDLDEAAYKHSDITAHSCPPVEPAAA
notes: Bought reagent; also called hGas6; Growth Arrest-Specific 6
As for B1, the 50% effective concentration (EC50) – broadly, the concentration giving half of the maximal effect – in the assay with human AXL (full length) [1] worked out at 0.4 µg/mL; in the assay with human AXL (full length) [2], 0.4 µg/mL; with human AXL (full length) [3], 0.78 µg/mL; with human AXL (full length) [4] it was 0.73 µg/mL; with human AXL (full length) [5], 0.44 µg/mL; with human AXL (full length) [6], 0.69 µg/mL. Also, the EC50 turned out to be 0.34 µg/mL in the assay with human AXL (full length) [7]; 0.74 µg/mL with human AXL (full length) [8]; 0.57 µg/mL with human AXL (full length) [9]; 0.77 µg/mL with human AXL (full length) [10]; 0.83 µg/mL in the assay with human AXL (full length) [11]; 0.78 µg/mL with human AXL (full length) [12]. The EC50 with human AXL (full length) [13] was 0.57 µg/mL; with human AXL (full length) [15], 5.53 µg/mL; in the assay with human AXL (full length) [16] it was 5.53 µg/mL. Besides, the EC50 (read off the curve) – broadly, the midpoint of the concentration-response curve – with human AXL (full length) [14] is about 0.1 µg/mL.

B2: IgG1-AXL-061 (antibody, V domains shown)
VH: QVQLVQSGAEVKKPGASVKVSCKASGYAFTGYGISWVRQAPGQGLEWIGWISAYNGNTNYVQNLQDRVTMTTDTSTSTAYMELRSLRSDDTAVYYCARDHISMLRGIIIRNYWGQGTLVTVSS
VL: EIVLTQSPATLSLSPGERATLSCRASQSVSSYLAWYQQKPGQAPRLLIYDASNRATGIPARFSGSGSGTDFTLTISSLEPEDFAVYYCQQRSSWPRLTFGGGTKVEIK
B2 yielded an EC50 with human AXL (full length) [17] of 0.15 µg/mL. Besides, the binding result in assay [18], in assay [19] and in assay [20] was “binds” throughout. Moreover, the “maximal binding in presence of Gas6 (% of binding in absence of Gas6)” value with human AXL (full length) [21] was determined as 43%.
